Measurements from the supplement of paper PMC6757056.
± gives the standard deviation of the averaged measurements.

B1: library; a variant is named by its letters at N, in order (parent)
chain: GCUGUCACCGGUGCUUGGUACGUUAUAUUCAGCCGGUCUGAUGAGUCUNNNNNNAGACGAAACAGC

Tests used:
(6R,S)-folinic acid [1] = variants of: B1; assay: FACS-Seq fitted mean relative fluorescence mCherry/BFP without ligand (log10 relative fluorescence); HEK293T overexpressing SLC46A1; higher = higher reporter protein expression; conditions: without (6R,S)-folinic acid; ligand present: no
Method: (§1)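 Hammerhead (sTRSV) ribozyme switch libraries with a ligand aptamer grafted on stem I and a randomized N4-6 loop II, cloned into the 3' UTR of mCherry and transiently transfected into HEK293T cells; RNA-Seq 72 h post transfection with ligand added 1 h before transfection; RNA read count / plasmid DNA read count normalized to the non-cleaving sTRSVctl (x100), log10; sequences with >100 DNA reads. FACS-Seq: lentiviral library sorted into 6 bins after 48 h ligand, log-normal fit mean of mCherry/BFP scaled to controls. Printed sequences are partial switch sequences.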

(6R,S)-folinic acid [2] = variants of: B1; assay: normalized RNA/DNA level without ligand (relative to sTRSVctl = 100) (log10 (% of sTRSVctl)); HEK293T overexpressing SLC46A1; higher = less ribozyme self-cleavage, higher mRNA level; conditions: without (6R,S)-folinic acid; ligand present: no
Method: as §1

(6R,S)-folinic acid [3] = variants of: B1; assay: FACS-Seq fitted mean relative fluorescence mCherry/BFP with ligand (log10 relative fluorescence); HEK293T overexpressing SLC46A1; ligand concentration (+) FACS-Seq: 6 mM; higher = higher reporter protein expression; conditions: with (6R,S)-folinic acid; ligand present: yes
Method: as §1

(6R,S)-folinic acid [4] = variants of: B1; assay: normalized RNA/DNA level with ligand (relative to sTRSVctl = 100) (log10 (% of sTRSVctl)); HEK293T overexpressing SLC46A1; ligand concentration (+) RNA-Seq: 6 mM; higher = less ribozyme self-cleavage, higher mRNA level; conditions: with (6R,S)-folinic acid; ligand present: yes
Method: as §1

| Variant | FACS-Seq fitted mean (log10) ((6R,S)-folinic acid [1]) | normalized RNA/DNA level without ligand (log10) ((6R,S)-folinic acid [2]) | FACS-Seq fitted mean (log10) ((6R,S)-folinic acid [3]) | normalized RNA/DNA level with ligand (log10) ((6R,S)-folinic acid [4]) |
| --- | --- | --- | --- | --- |
| CACAAA | 0.458 ± 0.03 | 1.981 ± 0.014 | 0.462 ± 0.16 | 1.99 ± 0.033 |
| GACAAC | 0.378 ± 0.076 | 1.987 ± 0.0049 | 0.472 ± 0.21 | 2.004 ± 0.013 |
| GACAAA | 0.367 ± 0.089 | 1.974 ± 0.0039 | 0.306 ± 0.081 | 2.007 ± 0.019 |
| GACAGG | 0.464 ± 0.089 | 1.959 ± 0.01 | 0.498 ± 0.27 | 2.02 ± 0.042 |
| GACAGA | 0.403 ± 0.0081 | 1.994 ± 0.017 | 0.442 ± 0.15 | 2.01 ± 0.035 |
| AACAAU | 0.338 ± 0.22 | 1.935 ± 0.0082 | 0.122 ± 0.3 | 1.97 ± 0.039 |
| AACAAA | 0.414 ± 0.011 | 1.967 ± 0.017 | 0.365 ± 0.15 | 1.99 ± 0.021 |
| AACAAC | -0.0136 ± 0.067 | 2.028 ± 0.006 | -0.491 ± 0.14 | 2.02 ± 0.024 |
| AACAAG | 0.152 ± 0.031 | 1.923 ± 0.0084 | 0.113 ± 0.2 | 2.02 ± 0.036 |
| UAAUGA | 0.29 ± 0.014 | 1.872 ± 0.006 | 0.227 ± 0.042 | 2 ± 0.022 |
| UAAUGU | 0.615 ± 0.038 | 1.896 ± 0.0068 | 0.695 ± 0.092 | 2 ± 0.055 |
| UAAUGG | 0.152 ± 0.043 | 1.601 ± 0.011 | 0.399 ± 0.18 | 1.923 ± 0.0091 |
| UAAUGC | 0.147 ± 0.059 | 1.946 ± 0.017 | 0.234 ± 0.13 | 1.98 ± 0.032 |
| AACCAA | 0.377 ± 0.016 | 1.989 ± 0.0067 | 0.433 ± 0.11 | 2 ± 0.028 |
| GAAAGG | 0.138 ± 0.034 | 1.902 ± 0.0036 | 0.0807 ± 0.19 | 2 ± 0.021 |
| UACAUG | 0.195 ± 0.2 | 1.76 ± 0.0019 | 0.236 ± 0.015 | 1.97 ± 0.019 |
| UACAUA | 0.329 ± 0.1 | 1.959 ± 0.012 | 0.058 ± 0.017 | 2.002 ± 0.0044 |
| AAAGGC | 0.486 ± 0.051 | 2.041 ± 0.0056 | 0.631 ± 0.18 | 2.04 ± 0.034 |
| AAAGGG | 0.172 ± 0.033 | 1.671 ± 0.016 | 0.631 ± 0.087 | 1.97 ± 0.049 |
| AAAGGA | 0.158 ± 0.1 | 1.909 ± 0.007 | 0.355 ± 0.16 | 2 ± 0.027 |
| CAAUGA | 0.153 ± 0.14 | 1.998 ± 0.0058 | 0.267 ± 0.16 | 2.02 ± 0.049 |
| CAAGCA | 0.195 ± 0.065 | 2.018 ± 0.012 | 0.434 ± 0.14 | 2.03 ± 0.032 |
| CAAGCU | 0.363 ± 0.071 | 2.047 ± 0.0037 | 0.443 ± 0.099 | 2.05 ± 0.043 |
| AAAUCG | 0.416 ± 0.0066 | 1.955 ± 0.0094 | 0.42 ± 0.12 | 2.03 ± 0.036 |

| Variant | FACS-Seq fitted mean (log10) ((6R,S)-folinic acid [1]) | normalized RNA/DNA level without ligand (log10) ((6R,S)-folinic acid [2]) | FACS-Seq fitted mean (log10) ((6R,S)-folinic acid [3]) | normalized RNA/DNA level with ligand (log10) ((6R,S)-folinic acid [4]) |
| --- | --- | --- | --- | --- |
| AAAUCC | 0.504 ± 0.068 | 2.044 ± 0.013 | 0.398 ± 0.23 | 2.03 ± 0.044 |
| CAAGGA | 0.62 ± 0.052 | 1.981 ± 0.019 | 0.722 ± 0.17 | 1.99 ± 0.052 |
| CAAGGG | -0.428 ± 0.17 | 1.88 ± 0.02 | -0.164 ± 0.057 | 1.99 ± 0.013 |
| AAAGAA | 0.282 ± 0.14 | 1.923 ± 0.011 | 0.569 ± 0.098 | 1.99 ± 0.037 |
| AAAGAG | 0.224 ± 0.031 | 1.617 ± 0.0032 | 0.316 ± 0.22 | 1.93 ± 0.049 |
| AAAGAU | 0.433 ± 0.025 | 1.9288 ± 0.0013 | 0.44 ± 0.027 | 2 ± 0.032 |
| AAAGAC | 0.42 ± 0.029 | 1.98 ± 0.0069 | 0.38 ± 0.23 | 2.01 ± 0.028 |
| AACAGU | -0.296 ± 0.34 | 1.94 ± 0.018 | 0.0957 ± 0.15 | 2.001 ± 0.0087 |
| AACAGA | 0.344 ± 0.11 | 1.964 ± 0.01 | 0.425 ± 0.04 | 2 ± 0.028 |
| AACAGG | 0.475 ± 0.12 | 1.904 ± 0.01 | 0.351 ± 0.0077 | 2 ± 0.031 |
| GAAGUA | 0.299 ± 0.013 | 1.966 ± 0.0082 | 0.331 ± 0.045 | 2.014 ± 0.019 |
| GAAGUG | 0.327 ± 0.098 | 1.8629 ± 0.0002 | 0.369 ± 0.033 | 1.99 ± 0.026 |
| GAAGUU | 0.522 ± 0.18 | 2.007 ± 0.0088 | 0.481 ± 0.2 | 2.04 ± 0.03 |
| GACACA | 0.265 ± 0.028 | 1.99 ± 0.02 | 0.656 ± 0.046 | 2 ± 0.037 |
| GAAUAA | -0.184 ± 0.011 | 1.976 ± 0.0046 | -0.234 ± 0.28 | 1.989 ± 0.016 |
| GAAUAC | 0.463 ± 0.14 | 1.974 ± 0.0095 | 0.313 ± 0.25 | 2 ± 0.053 |
| AACAUC | -0.902 ± 0.27 | 2.061 ± 0.019 | -0.887 ± 0.24 | 2.06 ± 0.065 |
| AACAUA | 0.204 ± 0.049 | 1.975 ± 0.0044 | 0.324 ± 0.15 | 1.99 ± 0.033 |
| AACAUG | 0.494 ± 0.1 | 1.96 ± 0.0024 | 0.6524 ± 0.0008 | 2.02 ± 0.022 |
| CAAGUU | 0.055 ± 0.13 | 2 ± 0.021 | 0.00566 ± 0.18 | 2.03 ± 0.046 |
| GAAAUG | 0.4312 ± 0.0042 | 1.954 ± 0.012 | 0.551 ± 0.067 | 2.03 ± 0.043 |
| GAAAUA | 0.624 ± 0.015 | 2.008 ± 0.007 | 0.26 ± 0.23 | 2.02 ± 0.038 |
| GAACGA | 0.313 ± 0.13 | 1.997 ± 0.012 | 0.623 ± 0.36 | 2.031 ± 0.02 |
| GAACGG | 0.0676 ± 0.01 | 1.94 ± 0.032 | 0.104 ± 0.12 | 2.018 ± 0.019 |

| Variant | FACS-Seq fitted mean (log10) ((6R,S)-folinic acid [1]) | normalized RNA/DNA level without ligand (log10) ((6R,S)-folinic acid [2]) | FACS-Seq fitted mean (log10) ((6R,S)-folinic acid [3]) | normalized RNA/DNA level with ligand (log10) ((6R,S)-folinic acid [4]) |
| --- | --- | --- | --- | --- |
| GAACGC | 0.22 ± 0.11 | 1.946 ± 0.0053 | 0.118 ± 0.03 | 1.99 ± 0.022 |
| UAAUUG | 0.377 ± 0.016 | 1.794 ± 0.0071 | 0.456 ± 0.012 | 1.972 ± 0.017 |
| GAACAA | 0.694 ± 0.2 | 1.976 ± 0.013 | 0.571 ± 0.25 | 2 ± 0.033 |
| GAACAG | 0.808 ± 0.1 | 1.959 ± 0.0099 | 0.638 ± 0.1 | 2.01 ± 0.03 |
| CAAUAA | 0.248 ± 0.034 | 1.934 ± 0.017 | 0.463 ± 0.091 | 1.97 ± 0.031 |
| CAAUAG | 0.376 ± 0.018 | 1.942 ± 0.0058 | 0.641 ± 0.16 | 2.011 ± 0.0065 |
| AAAAUA | 0.397 ± 0.014 | 1.9645 ± 0.00067 | 0.47 ± 0.066 | 2 ± 0.025 |
| AAAAUU | 0.432 ± 0.056 | 2.0158 ± 0.0011 | 0.29 ± 0.039 | 2.02 ± 0.031 |
| UAAGGG | -0.0665 ± 0.0016 | 1.601 ± 0.002 | 0.263 ± 0.16 | 1.92 ± 0.025 |
| UAAGGA | 0.0731 ± 0.084 | 1.85 ± 0.026 | 0.217 ± 0.0071 | 1.997 ± 0.018 |
| AAACGG | 0.359 ± 0.076 | 1.903 ± 0.013 | 0.384 ± 0.1 | 2.006 ± 0.016 |
| AAACGA | 0.186 ± 0.039 | 2 ± 0.018 | 0.192 ± 0.16 | 2.03 ± 0.026 |
| AAACGU | 0.248 ± 0.096 | 1.966 ± 0.011 | 0.326 ± 0.22 | 2 ± 0.024 |
| UAACGA | 0.256 ± 0.05 | 1.93 ± 0.0022 | 0.34 ± 0.11 | 2.01 ± 0.036 |
| UAACGC | 0.334 ± 0.0089 | 1.993 ± 0.008 | 0.0549 ± 0.066 | 2.02 ± 0.045 |
| UAACGG | 0.142 ± 0.02 | 1.705 ± 0.011 | 0.534 ± 0.11 | 1.95 ± 0.034 |
| CACAUA | 0.25 ± 0.021 | 1.978 ± 0.0043 | 0.219 ± 0.3 | 2.02 ± 0.035 |
| AAACAG | 0.346 ± 0.021 | 1.925 ± 0.0068 | 0.296 ± 0.11 | 1.99 ± 0.046 |
| AAACAU | 0.298 ± 0.095 | 1.971 ± 0.0055 | 0.199 ± 0.17 | 2.01 ± 0.045 |
| AAACAC | 0.222 ± 0.096 | 2.001 ± 0.01 | 0.0733 ± 0.14 | 2.01 ± 0.026 |
| AAACAA | 0.376 ± 0.066 | 1.971 ± 0.0088 | 0.436 ± 0.009 | 1.99 ± 0.022 |
| AAAAGG | 0.512 ± 0.12 | 1.875 ± 0.005 | 0.459 ± 0.17 | 1.98 ± 0.038 |
| AAAAGC | 0.477 ± 0.09 | 1.999 ± 0.011 | 0.358 ± 0.1 | 2.03 ± 0.042 |
